This note sets out measurements from patent US20240390512A1 (Daiichi Sankyo, published 2024).

One test addresses T1, mouse CDH6, on cells (mouse, UniProt P97326 54-790).
T1 construct: also called mCDH6; NP_031692
T1 sequence: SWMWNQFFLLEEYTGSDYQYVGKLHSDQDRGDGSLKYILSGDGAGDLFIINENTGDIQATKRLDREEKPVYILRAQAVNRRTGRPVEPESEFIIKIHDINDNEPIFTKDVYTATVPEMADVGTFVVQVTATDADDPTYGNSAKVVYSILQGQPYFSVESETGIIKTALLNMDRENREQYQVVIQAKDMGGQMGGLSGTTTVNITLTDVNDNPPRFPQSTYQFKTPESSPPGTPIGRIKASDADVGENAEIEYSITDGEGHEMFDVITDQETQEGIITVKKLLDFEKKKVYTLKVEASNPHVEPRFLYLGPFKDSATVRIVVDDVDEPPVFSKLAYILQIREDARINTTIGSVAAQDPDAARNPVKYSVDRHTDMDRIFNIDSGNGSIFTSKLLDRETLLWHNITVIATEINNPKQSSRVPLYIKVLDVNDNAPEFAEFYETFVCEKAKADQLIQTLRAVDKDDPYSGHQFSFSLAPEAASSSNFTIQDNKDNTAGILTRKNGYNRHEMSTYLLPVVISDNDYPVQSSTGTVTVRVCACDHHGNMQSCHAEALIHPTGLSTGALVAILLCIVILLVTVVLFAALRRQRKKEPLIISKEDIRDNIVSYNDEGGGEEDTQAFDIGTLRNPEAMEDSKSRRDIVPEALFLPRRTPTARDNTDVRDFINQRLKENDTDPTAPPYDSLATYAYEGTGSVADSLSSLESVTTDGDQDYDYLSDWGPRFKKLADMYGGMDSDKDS
The test is described as follows: flow cytometry; 293α cells transfected with mCDH6; PE anti-human IgG Fc(gamma) goat F(ab'). A general note: In flow cytometry, cells or beads pass a laser one at a time.

In the next test the target is T2, rat CDH6, on cells (rat, UniProt P55280 54-789).
T2 construct: also called rCDH6; NP_037059
T2 sequence: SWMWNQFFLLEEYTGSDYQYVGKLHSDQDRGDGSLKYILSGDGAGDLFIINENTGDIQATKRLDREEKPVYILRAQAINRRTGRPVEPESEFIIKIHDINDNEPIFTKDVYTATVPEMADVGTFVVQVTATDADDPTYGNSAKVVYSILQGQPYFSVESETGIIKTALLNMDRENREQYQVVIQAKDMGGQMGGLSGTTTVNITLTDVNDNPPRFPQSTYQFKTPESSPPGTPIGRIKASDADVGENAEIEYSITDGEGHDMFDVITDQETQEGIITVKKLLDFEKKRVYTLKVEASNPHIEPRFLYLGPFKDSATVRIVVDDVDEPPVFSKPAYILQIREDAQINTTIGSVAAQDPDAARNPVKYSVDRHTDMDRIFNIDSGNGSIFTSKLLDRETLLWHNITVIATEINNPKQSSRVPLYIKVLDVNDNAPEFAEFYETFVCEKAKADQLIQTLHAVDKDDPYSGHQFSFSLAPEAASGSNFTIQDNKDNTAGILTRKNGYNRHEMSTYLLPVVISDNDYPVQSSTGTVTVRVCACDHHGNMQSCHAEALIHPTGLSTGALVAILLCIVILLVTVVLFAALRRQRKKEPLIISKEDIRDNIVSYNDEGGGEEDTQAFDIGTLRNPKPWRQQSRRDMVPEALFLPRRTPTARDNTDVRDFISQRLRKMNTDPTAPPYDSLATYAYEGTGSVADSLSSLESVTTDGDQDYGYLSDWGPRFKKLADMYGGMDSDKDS
Briefly: flow cytometry; 293α cells transfected with rCDH6; PE anti-human IgG Fc(gamma) goat F(ab').

The target of test [1] is T3, Recombinant Human CDH6 Fc His chimera (R&D Systems, Inc.) (human, UniProt P55285 54-615).
T3 construct: Bought reagent; also called the antigen; human CDH6 antigen; Fc part of the bought chimera not given; His tag of the bought chimera
T3 sequence: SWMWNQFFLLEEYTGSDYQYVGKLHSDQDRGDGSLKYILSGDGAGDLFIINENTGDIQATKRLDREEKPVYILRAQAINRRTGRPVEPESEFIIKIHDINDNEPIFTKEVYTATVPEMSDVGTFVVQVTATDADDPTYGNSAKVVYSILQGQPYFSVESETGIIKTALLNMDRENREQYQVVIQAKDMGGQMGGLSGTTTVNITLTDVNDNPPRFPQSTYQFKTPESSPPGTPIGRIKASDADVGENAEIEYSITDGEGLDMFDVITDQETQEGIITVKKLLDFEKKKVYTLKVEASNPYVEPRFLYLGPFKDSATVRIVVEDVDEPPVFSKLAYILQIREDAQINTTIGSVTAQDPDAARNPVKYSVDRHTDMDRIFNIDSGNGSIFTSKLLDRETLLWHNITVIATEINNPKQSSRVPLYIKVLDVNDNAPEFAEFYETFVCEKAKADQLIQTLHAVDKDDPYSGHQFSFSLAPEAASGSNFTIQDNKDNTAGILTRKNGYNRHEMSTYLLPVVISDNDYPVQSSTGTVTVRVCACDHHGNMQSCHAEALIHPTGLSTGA
The test is described as follows: SPR (Biacore T200); antigen captured by immobilized anti-His antibody, antibody as analyte 0.391 to 100 nM; steady state affinity model. For orientation: SPR reads the build-up and loss of mass on a sensor chip optically.

The target in test [2] is T4, EC3 deletion mutant of human CDH6, on cells (human, UniProt P55285 54-790).
T4 construct: in p3×FLAG-CMV-9; also called EC3-deleted hCDH6
T4 sequence: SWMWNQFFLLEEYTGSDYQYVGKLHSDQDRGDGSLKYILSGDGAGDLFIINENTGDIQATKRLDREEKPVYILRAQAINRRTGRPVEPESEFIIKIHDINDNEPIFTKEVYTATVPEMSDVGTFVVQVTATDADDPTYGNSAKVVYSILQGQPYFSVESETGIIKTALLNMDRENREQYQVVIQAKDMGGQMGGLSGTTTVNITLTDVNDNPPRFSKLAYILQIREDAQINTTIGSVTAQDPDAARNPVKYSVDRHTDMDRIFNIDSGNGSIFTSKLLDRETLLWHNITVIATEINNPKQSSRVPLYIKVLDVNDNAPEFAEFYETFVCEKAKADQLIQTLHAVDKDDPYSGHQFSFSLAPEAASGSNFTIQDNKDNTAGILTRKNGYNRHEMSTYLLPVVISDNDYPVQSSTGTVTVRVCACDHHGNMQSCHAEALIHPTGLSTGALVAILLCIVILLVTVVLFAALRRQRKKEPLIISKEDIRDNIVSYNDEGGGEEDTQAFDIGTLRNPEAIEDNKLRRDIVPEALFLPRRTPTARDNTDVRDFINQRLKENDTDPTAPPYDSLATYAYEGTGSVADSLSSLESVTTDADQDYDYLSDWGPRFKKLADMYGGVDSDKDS
The test is described as follows: flow cytometry; 293α cells transfected with EC3-deleted hCDH6 (open line) against untransfected 293α cells (shaded); APC anti-human IgG goat F(ab')2; antibody concentration not given.

In test [3] the target is T5, human CDH6 (cadherin-6), full-length, on cells (human, UniProt P55285 54-790).
T5 construct: also called hCDH6; full-length hCDH6
T5 sequence: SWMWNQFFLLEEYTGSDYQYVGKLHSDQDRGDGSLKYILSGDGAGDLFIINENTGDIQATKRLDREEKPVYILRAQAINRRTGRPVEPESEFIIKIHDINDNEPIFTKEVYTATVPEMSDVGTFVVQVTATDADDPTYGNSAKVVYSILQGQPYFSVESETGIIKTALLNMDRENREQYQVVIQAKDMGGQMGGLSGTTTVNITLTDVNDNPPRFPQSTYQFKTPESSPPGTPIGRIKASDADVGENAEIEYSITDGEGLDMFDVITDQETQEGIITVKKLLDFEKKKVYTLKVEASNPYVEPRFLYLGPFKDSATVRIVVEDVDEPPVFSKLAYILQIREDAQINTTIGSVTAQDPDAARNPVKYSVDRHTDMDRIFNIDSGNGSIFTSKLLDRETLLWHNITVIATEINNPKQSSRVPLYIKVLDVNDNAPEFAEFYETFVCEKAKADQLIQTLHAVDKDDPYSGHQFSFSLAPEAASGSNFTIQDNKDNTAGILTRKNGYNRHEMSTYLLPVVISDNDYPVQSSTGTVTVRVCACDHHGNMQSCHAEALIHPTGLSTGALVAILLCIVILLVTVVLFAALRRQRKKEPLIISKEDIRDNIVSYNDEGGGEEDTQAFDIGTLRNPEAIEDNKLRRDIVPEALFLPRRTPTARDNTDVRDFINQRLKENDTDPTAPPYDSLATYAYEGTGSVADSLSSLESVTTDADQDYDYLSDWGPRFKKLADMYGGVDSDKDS
Briefly: flow cytometry; 293α cells transfected with pcDNA3.1-hCDH6; PE anti-human IgG Fcγ F(ab')2.

Test [4] has as its target T6, cynomolgus monkey CDH6, on cells (cynomolgus monkey, UniProt P55285 54-790 (human entry)).
T6 construct: Expressed from pcDNA3.1-cynoCDH6; also called cynoCDH6
T6 sequence: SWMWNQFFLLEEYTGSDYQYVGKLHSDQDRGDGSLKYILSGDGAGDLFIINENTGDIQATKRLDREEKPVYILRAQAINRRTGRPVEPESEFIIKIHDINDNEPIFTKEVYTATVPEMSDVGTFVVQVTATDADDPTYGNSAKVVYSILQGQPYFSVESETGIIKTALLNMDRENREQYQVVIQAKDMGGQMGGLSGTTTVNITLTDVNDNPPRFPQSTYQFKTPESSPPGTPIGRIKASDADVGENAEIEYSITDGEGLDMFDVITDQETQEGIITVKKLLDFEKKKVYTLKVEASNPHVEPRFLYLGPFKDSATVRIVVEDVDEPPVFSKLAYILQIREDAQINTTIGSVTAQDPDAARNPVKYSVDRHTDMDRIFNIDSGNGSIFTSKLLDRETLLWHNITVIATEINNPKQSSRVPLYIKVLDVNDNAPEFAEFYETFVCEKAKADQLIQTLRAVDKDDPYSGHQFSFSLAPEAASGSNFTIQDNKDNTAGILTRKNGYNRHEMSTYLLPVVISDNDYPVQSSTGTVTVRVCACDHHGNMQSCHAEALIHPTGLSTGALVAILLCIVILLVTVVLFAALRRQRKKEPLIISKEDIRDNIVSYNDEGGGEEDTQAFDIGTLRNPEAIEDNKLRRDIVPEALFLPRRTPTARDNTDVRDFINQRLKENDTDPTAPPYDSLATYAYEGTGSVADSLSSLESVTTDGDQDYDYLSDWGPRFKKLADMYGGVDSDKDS
Briefly: flow cytometry; 293α cells transfected with pcDNA3.1-cynoCDH6; PE anti-human IgG Fcγ F(ab')2.

B1: humanized anti-CDH6 antibody H02L02 (antibody, human IgG1, kappa, V domains shown)
VH: EVQLVQSGAEVKKPGASVKVSCKASGYTFTRNFMHWVRQAPGQGLEWMGWIYPGDGETEYNQKFQGRVTITADRSTSTAYMELSSLRSEDTAVYFCARGVYGGFAGGYFDFWGQGTLVTVSS
VL: DIQMTQSPSSLSASVGDRVTITCKASQNIYKNLAWYQQKPGKAPKLLIYDANTLQTGVPSRFSGSGSGSDFTLTISSLQPEDFATYFCQQYYSGWAFGQGTKVEIKR
notes: hH02 heavy chain and hL02 light chain, human IgG1 / kappa; also called H02L02 antibody
Regarding B1, the binding result in the test with mouse CDH6, on cells is listed as “no binding (tested: about 4, unit not printed on the axis)”; in the test with rat CDH6, on cells, “no binding (tested: about 4, unit not printed on the axis)”; in test [2], “no binding”. In addition, the equilibrium dissociation constant (Kd) in test [1] came out at 1.1 nM.

B2: humanized anti-CDH6 antibody H01L02 (antibody, human IgG1, kappa, V domains shown)
VH: EVQLVQSGAEVKKPGASVKVSCKASGYTFTRNFMHWVRQAPGQGLEWMGWIYPGDGETEYAQKFQGRVTITADTSTSTAYMELSSLRSEDTAVYYCARGVYGGFAGGYFDFWGQGTLVTVSS
VL: DIQMTQSPSSLSASVGDRVTITCKASQNIYKNLAWYQQKPGKAPKLLIYDANTLQTGVPSRFSGSGSGSDFTLTISSLQPEDFATYFCQQYYSGWAFGQGTKVEIKR
notes: hH01 heavy chain and hL02 light chain, human IgG1 / kappa; also called H01L02 antibody; humanized hG019 (H01L02)
For B2, the binding result is recorded as “no binding (tested: about 4, unit not printed on the axis)” in the test with mouse CDH6, on cells; “no binding (tested: about 4, unit not printed on the axis)” in the test with rat CDH6, on cells; “no binding” in test [2]. The Kd in test [1] worked out at 1.5 nM.

B3: humanized anti-CDH6 antibody H02L03 (antibody, human IgG1, kappa, V domains shown)
VH: EVQLVQSGAEVKKPGASVKVSCKASGYTFTRNFMHWVRQAPGQGLEWMGWIYPGDGETEYNQKFQGRVTITADRSTSTAYMELSSLRSEDTAVYFCARGVYGGFAGGYFDFWGQGTLVTVSS
VL: DIQMTQSPSSLSASVGDRVTITCKASQNIYKNLAWYQQKLGEGPKLLIYDANTLQTGVPSRFSGSGSGTDFTLTISSLQPEDFATYYCQQYYSGWAFGQGTKVEIKR
notes: hH02 heavy chain and hL03 light chain, human IgG1 / kappa; also called H02L03 antibody
In the case of B3, the binding result with mouse CDH6, on cells is “no binding (tested: about 4, unit not printed on the axis)”; in the test with rat CDH6, on cells it was “no binding (tested: about 4, unit not printed on the axis)”; in test [2], “no binding”. In test [1], the dissociation constant (Kd) came out at 1.4 nM.

B4: human chimeric anti-CDH6 antibody chG019 (antibody, human IgG1)
heavy: not shown
light: DIQMTQSPSLLSASVGDRVTLNCKASQNIYKNLAWYQQKLGEGPKLLIYDANTLQTGIPSRFSGSGSGSDFTLTISSLQPEDVATYFCQQYYSGWAFGGVTNLELKRAVAAPSVFIFPPSDEQLKSGTASVVCLLNNFYPREAKVQWKVDNALQSGNSQESVTEQDSKDSTYSLSSTLTLSKADYEKHKVYACEVTHQGLSSPVTKSFNRGEC
notes: human IgG1 / kappa constant regions; also called chimeric G019 antibody; chG019 antibody
As for B4, the concentration giving a half-maximal response (EC50 (read off the curve)) in test [3] and in test [4] was around 0.01 µg/mL each time.

The term Kd denotes a measure of binding affinity in units of concentration. One may read the EC50 (read off the curve) as the concentration needed to bring the measured effect to its halfway point.
